Literature values in article PMC8727504.

Target: sMMOH (Methylosinus trichosporium) (UniProt P27353)
Assay: competition

Question: With MMOB (from UniProt P27356) as the substance, how does the Kd read?
Answer: < 0.1 µM
